Reference: the supplement of paper PMC10126150
± gives the standard deviation of the averaged measurements.

System: ATP
Experiment: switch fluorescence ratio, 500 uM ATP over buffer (Cy3 cluster intensity, sum of 5 cycles each) (fold (ratio)); higher = stronger signal-on switching upon ATP binding; sequences stand for … in TCGTCGGCAGCGTCAGATGTGTATAAGAGACAGTTTTTTTTTTTTTTTTTTTTTTTTT…TC
Settings: aptamer strand: ATP DNA aptamer (quencher-CACCTGGGGGAGTATTGCGGAGGAAGG + anchor), 100 nM annealed; ATP concentration: 500 uM
In short: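 Between each of five buffer/ATP cycles, the flow-cell was stripped with NaOH and re-annealed. Each cycle imaged Cy3-labelled switching-strand clusters, annealed to 100 nM quencher-labelled ATP aptamer on a modified Illumina MiSeq flow-cell, first in selection buffer and then after 15 min with 500 uM ATP at 22 °C. The fluorescence ratio is summed target-cycle over summed buffer-cycle Cy3 intensity per cluster, averaged per switch-domain sequence, with clusters outside 100-1000 RFU excluded.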
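Also: ATP exposure 15 min at 22 °C before imaging.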

| Sequence | switch fluorescence ratio |
| --- | --- |
| GGTGCAAGTT | 1.02 ± 0.042 |
| ATCGTTGGCT | 1.04 ± 0.07 |
| TTAAATTGCG | 0.994 ± 0.027 |
| TTTTAAAACA | 1.02 ± 0.029 |
| GCGGTCCCCG | 1.11 ± 0.031 |
| GGTAGTGCTG | 0.982 ± 0.042 |
| TGGGAGCATA | 1.05 ± 0.022 |
| CACGGGTGGC | 1.152 ± 0.011 |
| GGCAGGGTTT | 0.99 ± 0.037 |
| GTGGTTGGAG | 0.9865 ± 0.0072 |
| CCCAGATTTT | 1.02 ± 0.03 |
| ATCGGTCCTT | 1.03 ± 0.027 |
| AACCGTGGTG | 1.05 ± 0.073 |
| ATTGTTATTT | 1.02 ± 0.018 |
| CCTCTTTTTT | 1.1 ± 0.035 |
| TAGGTTTTTG | 1.01 ± 0.058 |
| GCACGGAGGG | 1.01 ± 0.023 |
| GGTATGTTGG | 0.996 ± 0.011 |
| GGCGGAGTGC | 1.01 ± 0.027 |
| TTGGTCTTGT | 1.001 ± 0.006 |
| TCTCGCCAAG | 1.06 ± 0.019 |
| CAAAACTTGC | 1.18 ± 0.032 |
| TAGAACGTCG | 0.98 ± 0.031 |
| TGTTATAGTT | 1.01 ± 0.055 |
| TGCCGTTCTT | 1 ± 0.021 |
| CCCATCCGGT | 1.12 ± 0.023 |

| Sequence | switch fluorescence ratio |
| --- | --- |
| AGACGGTCGG | 0.975 ± 0.016 |
| CGTTCTATTG | 1.02 ± 0.086 |
| GTGGTATTTT | 0.999 ± 0.035 |
| CAAAATTAAA | 0.958 ± 0.044 |
| CATGTTGGTA | 0.9946 ± 0.0076 |
| TAGTAGAGTT | 1 ± 0.013 |
| GGCTGGGAGG | 0.99 ± 0.014 |
| TGAGCAGTTG | 1.06 ± 0.12 |
| AGGAGGGATA | 1.04 ± 0.015 |
| TACATAAAAC | 1.011 ± 0.0025 |
| CGGGAACCTT | 1.283 ± 0.01 |
| GGGGGAAGCT | 1.03 ± 0.05 |
| ACTAATGTGG | 0.9959 ± 0.0068 |
| AGGCGCCTGG | 0.964 ± 0.04 |
| GATATGGATT | 0.977 ± 0.016 |
| GGGATCAAGA | 0.998 ± 0.023 |
| TTGAGGGACT | 1.01 ± 0.018 |
| CTGTTCATTG | 0.9807 ± 0.0037 |
| TTGGTCCGTC | 1.01 ± 0.047 |
| TATCGAATCC | 0.99 ± 0.025 |
| GCAAGCGGGA | 1.07 ± 0.079 |
| GTGTGTGGGG | 1.01 ± 0.048 |
| CAAACAGGCA | 1.03 ± 0.041 |
| ATTCGGGCTT | 0.976 ± 0.013 |
| CGAATGTTGG | 0.99 ± 0.041 |
| TGGTCTTCGT | 0.992 ± 0.057 |

| Sequence | switch fluorescence ratio |
| --- | --- |
| TTTATTAATT | 1 ± 0.029 |
| GGGGAGAGAT | 0.999 ± 0.064 |
| TGAGGGGGAC | 1.02 ± 0.087 |
| CTGATGTACG | 1.06 ± 0.12 |
| TTTATCCGGG | 0.99 ± 0.05 |
| AGGTTCCACG | 0.996 ± 0.03 |
| AGAAGCGACA | 0.994 ± 0.032 |
| GAGGTCTGTG | 0.965 ± 0.018 |
| TTTATTTTGG | 0.995 ± 0.053 |
| CTATACTTGA | 0.999 ± 0.031 |
| AAGAATAAAT | 1 ± 0.029 |
| CTCATGGGGA | 1.04 ± 0.075 |
| ACGTATTTTT | 1.12 ± 0.018 |
| CCGGGTTTTT | 1.12 ± 0.13 |
| GGAATGCTTC | 1.06 ± 0.041 |
| TCTCTGTCTC | 1.12 ± 0.097 |
| GCTGTTTACT | 1 ± 0.012 |
| AAACTGGATG | 0.9783 ± 0.0039 |
| TTTGGCTTCT | 1.04 ± 0.073 |
| TGAGTTGGCT | 1.02 ± 0.014 |
| CACAAGGGCG | 0.94 ± 0.02 |
| ATCTAATGCC | 1.01 ± 0.042 |
| TAGGAACAGC | 0.98 ± 0.012 |
| CGGTCGGGAT | 0.9606 ± 0.0031 |
